Read-outs that look alike come from different tables or passages of the source. Positions of bridges follow the written chain, without caps; N, C: chain ends. Non-standard residues stand in square brackets, D forms with d. No end group written: not given here. *: point of attachment. X10 = 1‑((2,4-dinitrophenyl)sulfonyl)piperidin‑4‑yl carbamate, O=C(OC1CCN(S(=O)(=O)c2ccc([N+](=O)[O-])cc2[N+](=O)[O-])CC1)*; X9 = 1‑((5-chloro-2-methoxyphenyl)sulfonyl)piperidin‑4‑yl carbamate, COc1ccc(Cl)cc1S(=O)(=O)N1CCC(OC(=O)*)CC1; X11 = 1‑((3-fluorophenyl)sulfonyl)piperidin‑4‑yl carbamate, O=C(OC1CCN(S(=O)(=O)c2cccc(F)c2)CC1)*; X8 = 1‑((4-chlorophenyl)sulfonyl)piperidin‑4‑yl carbamate, O=C(OC1CCN(S(=O)(=O)c2ccc(Cl)cc2)CC1)*; X13 = 1‑((2-fluorophenyl)sulfonyl)piperidin‑4‑yl carbamate, O=C(OC1CCN(S(=O)(=O)c2ccccc2F)CC1)*; X12 = 1‑(mesitylsulfonyl)piperidin‑4‑yl carbamate, Cc1cc(C)c(S(=O)(=O)N2CCC(OC(=O)*)CC2)c(C)c1; X7 = 1‑acetylpiperidin‑4‑yl carbamate, CC(=O)N1CCC(OC(=O)*)CC1; kbt = C-terminal Arg ketobenzothiazole; Fmoc = O=C(OCC1c2ccccc2-c2ccccc21)*; kt = C-terminal Arg ketothiazole
T1: recombinant N-terminal His-tag HGFA serine protease domain (UniProt Q04756 373-655)
T1 sequence (looked up): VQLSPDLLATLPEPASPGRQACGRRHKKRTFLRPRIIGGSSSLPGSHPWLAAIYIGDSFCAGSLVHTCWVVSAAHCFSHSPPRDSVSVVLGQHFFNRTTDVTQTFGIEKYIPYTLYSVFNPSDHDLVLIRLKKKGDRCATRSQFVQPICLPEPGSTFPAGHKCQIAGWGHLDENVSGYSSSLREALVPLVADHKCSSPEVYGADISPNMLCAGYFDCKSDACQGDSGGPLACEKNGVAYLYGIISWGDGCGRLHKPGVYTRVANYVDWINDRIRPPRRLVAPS

T2: matriptase (#3946-SE-010, R&D Systems) (UniProt Q9Y5Y6 615-855)
T2 sequence (looked up): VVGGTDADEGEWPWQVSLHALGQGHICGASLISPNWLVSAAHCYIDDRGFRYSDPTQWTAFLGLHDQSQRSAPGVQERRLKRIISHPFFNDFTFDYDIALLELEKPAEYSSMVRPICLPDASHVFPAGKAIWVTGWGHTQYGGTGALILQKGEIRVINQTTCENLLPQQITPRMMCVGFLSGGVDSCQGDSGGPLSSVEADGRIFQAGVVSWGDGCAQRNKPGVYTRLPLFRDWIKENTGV

T3: KLK5 (#1108-SE-010, R&D Systems) (UniProt Q9Y337 23-293, limits assumed)
T3 sequence (looked up): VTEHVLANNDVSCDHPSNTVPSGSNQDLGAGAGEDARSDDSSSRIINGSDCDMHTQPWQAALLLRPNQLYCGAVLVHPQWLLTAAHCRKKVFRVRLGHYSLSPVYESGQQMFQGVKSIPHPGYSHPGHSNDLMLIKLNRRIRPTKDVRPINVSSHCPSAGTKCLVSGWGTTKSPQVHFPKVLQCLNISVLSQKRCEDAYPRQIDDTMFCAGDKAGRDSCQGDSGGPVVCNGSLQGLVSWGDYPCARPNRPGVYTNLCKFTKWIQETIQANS


Key:
Assay in all cases: cell-based or functional assay
[1] = target: T4, activated hepsin (#4776-SE-010, R&D Systems) (UniProt P05981 45-417, limits assumed)
T4 sequence (P05981 45-417 limits assumed): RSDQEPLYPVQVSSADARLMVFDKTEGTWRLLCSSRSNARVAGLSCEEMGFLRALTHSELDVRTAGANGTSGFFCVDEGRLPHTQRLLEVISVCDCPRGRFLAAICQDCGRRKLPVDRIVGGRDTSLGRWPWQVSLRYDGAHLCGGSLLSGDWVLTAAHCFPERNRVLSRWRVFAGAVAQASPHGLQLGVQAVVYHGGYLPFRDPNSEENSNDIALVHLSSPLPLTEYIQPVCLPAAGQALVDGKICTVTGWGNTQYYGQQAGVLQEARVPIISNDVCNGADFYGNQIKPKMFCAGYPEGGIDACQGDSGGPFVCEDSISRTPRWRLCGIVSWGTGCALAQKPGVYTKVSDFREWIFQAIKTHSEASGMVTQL

[2] = target: T1, recombinant N-terminal His-tag HGFA …
[3] = target: T2, matriptase (#3946-SE-010, R&D Systems)
[4] = target: T3, KLK5 (#1108-SE-010, R&D Systems)
human TMPRSS2 = human TMPRSS2 (human, UniProt O15393 1-492)
human TMPRSS2, sequence (O15393 whole entry): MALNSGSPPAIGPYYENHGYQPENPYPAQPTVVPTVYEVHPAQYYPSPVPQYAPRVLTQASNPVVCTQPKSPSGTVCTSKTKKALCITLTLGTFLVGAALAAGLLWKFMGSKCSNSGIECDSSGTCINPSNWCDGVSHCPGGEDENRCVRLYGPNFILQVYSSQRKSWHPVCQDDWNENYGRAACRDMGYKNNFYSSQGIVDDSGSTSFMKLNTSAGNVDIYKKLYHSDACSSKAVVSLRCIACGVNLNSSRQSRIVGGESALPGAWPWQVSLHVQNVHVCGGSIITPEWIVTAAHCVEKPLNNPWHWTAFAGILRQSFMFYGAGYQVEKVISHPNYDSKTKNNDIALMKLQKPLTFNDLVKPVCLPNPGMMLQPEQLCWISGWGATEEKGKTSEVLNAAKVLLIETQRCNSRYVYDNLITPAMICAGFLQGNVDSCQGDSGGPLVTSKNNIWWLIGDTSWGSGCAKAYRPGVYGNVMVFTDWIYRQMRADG

[5] = target: T4, activated hepsin (#4776-SE-010, R&D …); remark: listed apart in the source
[6] = target: T1, recombinant N-terminal His-tag HGFA …; remark: listed apart in the source
[7] = target: T2, matriptase (#3946-SE-010, R&D Systems); remark: listed apart in the source
[8] = target: T4, activated hepsin (#4776-SE-010, R&D …); remark: listed apart in the source
[9] = target: Factor Xa (#1063-SE-010, R&D Systems) (UniProt P00742 41-488, limits assumed)
Factor Xa (#1063-SE-010, R&D Systems), sequence (P00742 41-488 limits assumed): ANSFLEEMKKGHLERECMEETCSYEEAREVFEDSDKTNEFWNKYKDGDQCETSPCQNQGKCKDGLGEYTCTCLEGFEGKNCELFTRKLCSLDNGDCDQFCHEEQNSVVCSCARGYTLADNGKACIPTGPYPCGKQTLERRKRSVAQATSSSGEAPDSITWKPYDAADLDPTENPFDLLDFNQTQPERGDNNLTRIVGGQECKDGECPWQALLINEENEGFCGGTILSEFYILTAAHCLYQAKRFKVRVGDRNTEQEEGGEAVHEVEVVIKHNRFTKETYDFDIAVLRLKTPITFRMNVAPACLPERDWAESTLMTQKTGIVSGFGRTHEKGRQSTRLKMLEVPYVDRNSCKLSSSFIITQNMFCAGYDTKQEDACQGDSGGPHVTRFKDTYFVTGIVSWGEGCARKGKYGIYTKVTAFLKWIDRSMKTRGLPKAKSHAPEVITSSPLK

[10] = target: T1, recombinant N-terminal His-tag HGFA …; remark: listed apart in the source
[11] = target: recombinant thrombin (#1473-SE-010, R&D Systems) (UniProt P00734 44-622)
[12] = target: T2, matriptase (#3946-SE-010, R&D Systems); remark: listed apart in the source

Binder	Hepsin IC50 [1] [nM]	HGFA IC50 [2] [nM]	Matriptase IC50 [3] [nM]	Factor Xa* (IC50 nM) [9] [nM]	HGFA (IC50 nM) [10] [nM]	Thrombin* (IC50 nM) [11] [nM]	other results
X9-Leu-Arg-kbt [1-((5-chloro-2-methoxyphenyl)sulfonyl)piperidin-4-yl Leu-Arg-kbt carbamate (8l)]	60	6300	4000	–	–	–	–
Ac-Trp-Phe-Arg-kbt [Ac-WFR-kbt, PK-1-102A1]	–	–	–	–	–	–	KLK5 IC50 [4]: > 20000 nM
X11-Leu-Arg-kbt [1-((3-fluorophenyl)sulfonyl)piperidin-4-yl Leu-Arg-kbt carbamate (8j)]	70	> 20000	7500	–	–	–	–
Ac-WLFR-kbt [Ac-WLFR-kbt, ZFH7064]	–	–	–	–	–	–	Calu-3 EC50 (human TMPRSS2): 150 nM; Hepsin IC50 [5]: 0.79 nM; HGFA IC50 [6]: 266 nM; Matriptase IC50 [7]: 12 nM
{2‑phenyl‑1‑(piperidin-4-yl)ethyl carbamate}-Leu-Arg-kbt [2-phenyl-1-(piperidin-4-yl)ethyl Leu-Arg-kbt carbamate (11b)]	2	6000	20	–	–	–	–
Fmoc-Trp-Arg-kbt [FmocWRkbt]	–	–	–	–	–	–	KLK5 IC50 [4]: 4390 nM
Ac-SKLR-kbt [Ac-SKLR kbt, ZFH7053]	–	–	–	–	–	–	KLK5 IC50 [4]: 2120 nM
Ac-MQFR-kbt [MM3130 Ac-MQFR-kbt]	–	–	–	342	36.5	> 20	Hepsin (IC50 nM) [8]: 0.135 nM; Matriptase (IC50 nM) [12]: 0.552 nM
X10-Leu-Arg-kbt [1-((2,4-dinitrophenyl)sulfonyl)piperidin-4-yl Leu-Arg-kbt carbamate (8k)]	110	> 20000	10000	–	–	–	–
Leu-Leu-Arg-{kbt-Val-NH2} (also: N-terminal cap inconsistent in filing (H or Ac)) [H-LLR-kbt V-amide ZFH7182]	–	–	–	–	–	–	Calu-3 EC50 (human TMPRSS2): 2060 nM; Hepsin IC50 [5]: 0.01 nM; HGFA IC50 [6]: 44 nM
Ac-GQFR-kbt [MM3122 Ac-GQFR-kbt]	–	–	–	700	32.5	> 20	Hepsin (IC50 nM) [8]: 0.194 nM; Matriptase (IC50 nM) [12]: 0.314 nM
Ac-KQLR-kbt [Ac-KQLR-kbt, ZFH7006]	–	–	–	–	–	–	Calu-3 EC50 (human TMPRSS2): 78 nM; Hepsin IC50 [5]: 0.17 nM; HGFA IC50 [6]: 60 nM; Matriptase IC50 [7]: 1.1 nM; KLK5 IC50 [4]: 1790 nM
X7-Leu-Arg-kbt [1-acetylpiperidin-4-yl Leu-Arg-kbt carbamate (8e)]	20	> 20000	640	–	–	–	–
Ac-Leu-Leu-Arg-kt [Ac-LLR-kt, ZFH6201]	–	–	–	–	–	–	Calu-3 EC50 (human TMPRSS2): 349 nM; Hepsin IC50 [5]: 4.6 nM; HGFA IC50 [6]: 506 nM; Matriptase IC50 [7]: 56 nM
X13-Leu-Arg-kbt [1-((2-fluorophenyl)sulfonyl)piperidin-4-yl Leu-Arg-kbt carbamate (8g)]	70	18000	4500	–	–	–	–
Ac-LQFR-kbt [MM3131 Ac-LQFR-kbt]	–	–	–	219	98.2	> 20	Hepsin (IC50 nM) [8]: 0.247 nM; Matriptase (IC50 nM) [12]: 1.8 nM
Ac-DQKR-kbt (lactam 1-3; also: N-terminal acetyl described as 6-acetamido) [Cyclo(DQK)R-kbt, VD3152]	–	–	–	> 20000	16100	> 20000	Calu-3 EC50 (human TMPRSS2): 138 nM; Hepsin IC50 [5]: 22 nM; HGFA IC50 [6]: 16100 nM; Matriptase IC50 [7]: 7.7 nM; Hepsin (IC50 nM) [8]: 22.2 nM; Matriptase (IC50 nM) [12]: 7.7 nM
Ac-[dW]-Phe-Arg-kbt [Ac-dWFR-kbt, PK-1-89A1]	–	–	–	–	–	–	Calu-3 EC50 (human TMPRSS2): 32 nM; Hepsin IC50 [5]: 100 nM; HGFA IC50 [6]: 346 nM; Matriptase IC50 [7]: 29 nM
Ac-IQFR-kbt [MM3116 Ac-IQFR-kbt]	–	–	–	792	30.2	> 20	Hepsin (IC50 nM) [8]: 0.14 nM; Matriptase (IC50 nM) [12]: 0.923 nM
Ac-DMKR-kbt (lactam 1-3; not fully specified; printed as Cyclo(DMK)R-kbt; also: N-terminal acetyl described as 6-acetamido) [Cyclo(DMK)R-kbt, VD3173]	–	–	–	1400	3240	> 20000	Calu-3 EC50 (human TMPRSS2): 119 nM; Hepsin IC50 [5]: 5.9 nM; HGFA IC50 [6]: 3240 nM; Matriptase IC50 [7]: 1 nM; Hepsin (IC50 nM) [8]: 5.9 nM; Matriptase (IC50 nM) [12]: 0.98 nM
X12-Leu-Arg-kbt [1-(mesitylsulfonyl)piperidin-4-yl Leu-Arg-kbt carbamate (8m)]	110	8800	> 20000	–	–	–	–
Ac-Gln-Phe-Arg-kbt [MM3144 Ac-QFR-kbt]	–	–	–	1.4	13.8	> 20	–
Ac-PQFR-kbt [MM3123 Ac-PQFR-kbt]	–	–	–	199	75	> 20	Hepsin (IC50 nM) [8]: 0.136 nM; Matriptase (IC50 nM) [12]: 0.316 nM
Ac-SQLR-kt [Ac-SQLR-kt, ZFH6138]	–	–	–	–	–	–	KLK5 IC50 [4]: 3940 nM
Fmoc-Pro-Arg-kbt [FmocPRkbt]	–	–	–	–	–	–	KLK5 IC50 [4]: 3680 nM
X8-Leu-Arg-kbt [1-((4-chlorophenyl)sulfonyl)piperidin-4-yl Leu-Arg-kbt carbamate (8i)]	60	9000	2400	–	–	–	–
